Data as given in US20150284465A1 (Chugai, published 2015).
Residue numbers refer to the chain shown, from its start. One block for each binder: values may come before it.

How the values were obtained:
[1] = molecular target: T1, human-derived Fcγ receptor IIb (Recombinant Human FcRIIB/C, R&D systems) (human, UniProt P31994 46-217, limits assumed); experiment: SPR (Biacore T100), FcγRIIb immobilized on CM5, antibody as analyte at 200 µg/ml, 25 C
T1 construct: Bought recombinant protein, construct not described; also called FcγRIIb
T1 sequence (looked up): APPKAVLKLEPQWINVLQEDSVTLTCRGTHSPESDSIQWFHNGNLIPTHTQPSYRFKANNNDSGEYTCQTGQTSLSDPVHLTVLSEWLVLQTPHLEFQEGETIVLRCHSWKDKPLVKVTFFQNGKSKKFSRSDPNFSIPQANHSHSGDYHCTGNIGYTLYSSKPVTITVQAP
Experimental: The FcγRIIb binding was assessed by the procedure described below. […] The amounts of bound antibody were compared. […] FcγRIIb was immobilized onto the sensor chip CM5 (Biacore) by the amine coupling method. The final amount of immobilized FcγRIIb was about 4,300 RU. Then, the running buffer was injected until the baseline was stabilized. The measurement was carried out after the baseline was stabilized. […] The running buffer used was HBS-EP+ (10 mM HEPES, 0.15M NaCl, 3 mM EDTA, 0.05% v/v Surfactant P20), and the flow rate was 20 μl/min. The measurement temperature was 25° C. The concentration of each IgG or modified form thereof was adjusted to 200 μg/ml. 20 μl of an analyte was injected and allowed to interact with the immobilized FcγRIIb. After interaction, the analyte was dissociated from FcγRIIb and the sensor chip was regenerated by injecting 200 μl of the running buffer. […] This series of injection was repeated twice.

[2] = molecular target: T2, hFcγRIIIaV-His6 (human-derived Fcγ receptor IIIa, Val) (human, UniProt P08637 17-208, limits assumed); experiment: SPR (Biacore T100), hFcγRIIIaV-His6 immobilized on CM5, antibody as analyte at 250 µg/ml
T2 construct: also called FcγRIIIa (Val); not shown: His6 tag
Experimental: The FcγRIIIa binding was assessed by the procedure described below. […] The amounts of bound antibody were compared. […] FcγRIIIa was immobilized onto the sensor chip CM5 (Biacore) by the amine coupling method. […] The running buffer used was HBS-EP+, and the flow rate was 5 μl/min. The sample concentration was adjusted to 250 μg/ml using HBS-EP+. The analysis included two steps: two minutes of association phase where 10 μl of an antibody solution was injected and the subsequent four minutes of dissociation phase where the injection was switched with HBS-EP+. After the dissociation phase, the sensor chip was regenerated by injecting 20 μl of 5 mM hydrochloric acid. The association, dissociation, and regeneration constitute one analysis cycle. Various antibody solutions were injected to obtain sensorgrams. […] 1999 August; 29(8):2613-24.

[3] = molecular target: T3, soluble human IL-31 receptor (human, UniProt Q8NI17 20-514); experiment: SPR (Biacore T100), antibody captured on Protein A, soluble human IL-31 receptor as analyte
T3 construct: also called soluble NR10; NR10
T3 sequence: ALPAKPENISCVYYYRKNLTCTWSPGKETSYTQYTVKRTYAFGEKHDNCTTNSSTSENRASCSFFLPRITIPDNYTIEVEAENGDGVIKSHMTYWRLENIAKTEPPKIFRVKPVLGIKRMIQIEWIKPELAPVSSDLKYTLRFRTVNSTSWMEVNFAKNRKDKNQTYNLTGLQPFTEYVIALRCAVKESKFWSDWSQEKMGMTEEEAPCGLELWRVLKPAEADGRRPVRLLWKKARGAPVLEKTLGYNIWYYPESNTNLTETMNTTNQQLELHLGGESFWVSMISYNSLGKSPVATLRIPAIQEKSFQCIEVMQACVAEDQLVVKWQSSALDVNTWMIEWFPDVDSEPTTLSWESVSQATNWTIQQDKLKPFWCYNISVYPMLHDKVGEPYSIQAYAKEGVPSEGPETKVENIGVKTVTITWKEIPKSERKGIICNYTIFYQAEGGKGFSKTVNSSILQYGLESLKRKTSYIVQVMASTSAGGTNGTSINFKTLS
Experimental: The antigen-antibody reaction kinetics between anti-human IL-31 receptor antibody and soluble human IL-31 receptor was analyzed using Biacore T100 (GE Healthcare Biosciences). The antigen-antibody interaction was measured by immobilizing rec-Protein A (Zymed) (hereinafter “Protein A”) onto a sensor chip, capturing an antibody with the immobilized Protein A, and then reacting the antibody with the antigen as an analyte using a method known to those skilled in the art. […] In the first step of the measurement, the antibody in solution was bound to Protein A/G, and the analyte solution was allowed to interact with the antibody. After three minutes of interaction, the solution was switched to HBS-EP+, and the dissociation phase was monitored for five minutes. After measurement of the dissociation phase, the sensor chip was regenerated by washing with 10 μl of 10 mM glycine-HCl (pH 1.5). The association, dissociation, and regeneration constitute one analysis cycle. Each antibody was measured according to this cycle. The obtained sensorgrams were kinetically analyzed using the Biacore-specific data analysis software, Biacore T100 Evaluation Software (GE Healthcare Biosciences).

[4] = molecular target: T4, recombinant human IL-6R sR (R&D systems) (human, UniProt P08887 20-358); experiment: SPR (Biacore T100), antibody captured on Protein A, rhIL-6sR as analyte, 25 C
T4 construct: Bought soluble receptor; also called rhIL-6sR; rhIL-s6R
T4 sequence (looked up): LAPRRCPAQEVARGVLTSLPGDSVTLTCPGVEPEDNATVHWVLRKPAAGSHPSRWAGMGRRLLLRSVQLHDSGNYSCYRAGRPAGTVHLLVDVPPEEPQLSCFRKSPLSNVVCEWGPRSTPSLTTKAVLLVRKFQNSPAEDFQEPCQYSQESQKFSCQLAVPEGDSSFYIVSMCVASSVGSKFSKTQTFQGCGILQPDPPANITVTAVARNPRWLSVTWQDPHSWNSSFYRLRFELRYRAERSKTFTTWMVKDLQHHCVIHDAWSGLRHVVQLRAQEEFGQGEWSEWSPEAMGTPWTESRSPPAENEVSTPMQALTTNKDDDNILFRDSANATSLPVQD
Experimental: The antigen-antibody interaction was measured by immobilizing 4,400 to 5,000 RU of rec-Protein A (Zymed) immobilized onto a sensor chip by the amine coupling method, binding various antibodies onto the chip, and then flowing the antigen over the chip as an analyte. For the antigen, various concentrations of rhIL-6sR were used. All measurements were carried out at 25° C. The kinetic parameters, association rate constant kₐ (1/Ms) and dissociation rate constant kd (1/s) were calculated from the sensorgrams obtained by measurement. Then, KD (M) was determined based on the rate constants. The respective parameters were determined using Biacore T100 Evaluation Software (Biacore).

[5] = molecular target: T5, SR344 (N-terminal 1st to 344th amino acids of soluble human IL-6R) (human, UniProt P08887 20-344, limits assumed); experiment: SPR (Biacore T100), Protein A/G capture, SR344 at 0, 0.36 and 1.4 µg/ml, 15 min dissociation, 37 C
T5 construct: also called recombinant soluble IL-6 receptor; soluble human IL-6 receptor
T5 sequence (looked up): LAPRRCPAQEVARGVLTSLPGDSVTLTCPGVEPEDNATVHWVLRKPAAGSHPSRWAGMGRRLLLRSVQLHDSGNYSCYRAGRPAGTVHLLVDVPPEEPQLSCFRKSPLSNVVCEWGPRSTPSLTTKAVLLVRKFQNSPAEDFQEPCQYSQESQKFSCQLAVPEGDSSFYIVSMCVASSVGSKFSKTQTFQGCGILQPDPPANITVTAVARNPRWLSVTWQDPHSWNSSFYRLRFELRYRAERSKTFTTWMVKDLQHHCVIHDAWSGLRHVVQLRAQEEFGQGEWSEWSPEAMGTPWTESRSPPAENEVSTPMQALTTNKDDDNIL
Experimental: This measurement was carried out under the same conditions described in Example 2. The running buffer used was HBS-EP+, and the flow rate was 20 μl/min. Each antibody was prepared so that about 100 RU of the antibody was bound to Protein A/G. SR344 was prepared at 0, 0.065, 0.131, and 0.261 μg/ml using HBS-EP+ and used as an analyte. In the first step of the measurement, the antibody in solution was bound to Protein A/G, and the analyte solution was allowed to interact therewith. After three minutes of interaction, the solution was switched to HBS-EP+, and the dissociation phase was monitored for 10 or 15 minutes. After measurement of the dissociation phase, the sensor chip was regenerated by washing with 10 μl of 10 mM glycine-HCl (pH 1.5). The association, dissociation, and regeneration constitute one analysis cycle. Each antibody was measured according to this cycle.
The Tm of purified H96/PF1L-IgG1 was determined by the method described in Example 5. The affinity measurement was carried out under essentially the same conditions used in Example 5. Note that the concentration of SR344 was adjusted to 0, 0.36, and 1.4 μg/ml, and the dissociation phase was monitored for 15 minutes.

T2 sequence (P08637 17-208 F176V limits assumed): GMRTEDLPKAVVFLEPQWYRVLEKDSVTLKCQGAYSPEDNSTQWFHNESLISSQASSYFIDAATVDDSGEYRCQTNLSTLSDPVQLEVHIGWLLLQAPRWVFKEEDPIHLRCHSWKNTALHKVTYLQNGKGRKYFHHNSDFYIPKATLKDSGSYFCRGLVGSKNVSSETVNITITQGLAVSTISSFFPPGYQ

B2: 31R_H2L2 (antibody, V domains shown)
VH: QVQLVQSGAEVKKPGASVKVSCKASGYTFTGYIMNWVRQAPGQGLEWMGLINPYNGGTSYNQQFQDRVTITADESTSTAYMELSSLRSEDTAVYYCARDGYDDGPYTMDYWGQGTLVTVSS
VL: DIQMTQSPSSLSASVGDRVTITCQTSEDIYSFLAWYQQKPGKAPKLLIYNAQTEAQGVPSRFSGSGSGTDFTLTISSLQPEDFATYYCQHHYESPLTFGGGTKVEIKR
Kd [3]: 3.9 nM | koff [3]: 0.0016 s⁻¹ | kon [3]: 420000 M⁻¹ s⁻¹

B4: 31R_H1L1 (antibody)
heavy: QVQLVQSGAEVKKPGASVKVSCKASGYTFTGYIMNWVRQAPGQGLEWMGLINPYNGGTSYNQKFKGRVTITADESTSTAYMELSSLRSEDTAVYYCARDGYDDGPYTMDYWGQGTLVTVSSASTKGPSVFPLAPSSKSTSESTAALGCLVKDYFPEPVTVSWNSGALTSGVHTFPAVLQSSGLYSLSSVVTVPSSNFGTQTYTCNVDHKPSNTKVDKTVERKSCVECPPCPAPPVAGPSVFLFPPKPKDTLMISRTPEVTCVVVDVSHEDPEVQFNWYVDGVEVHNAKTKPREEQFNSTFRVVSVLTVVHQDWLNGKEYKCKVSNKGLPAPIEKTISKTKGQPREPQVYTLPPSREEMTKNQVSLTCLVKGFYPSDIAVEWESNGQPENNYKTTPPMLDSDGSFFLYSKLTVDKSRWQQGNVFSCSVMHEALHNHYTQKSLSLSPGK
light: DIQMTQSPSSLSASVGDRVTITCRTSENIYSFLAWYQQKPGKAPKLLIYNAKTLAKGVPSRFSGSGSGTDFTLTISSLQPEDFATYYCQHHYESPLTFGGGTKVEIKRTVAAPSVFIFPPSDEQLKSGTASVVCLLNNFYPREAKVQWKVDNALQSGNSQESVTEQDSKDSTYSLSSTLTLSKADYEKHKVYACEVTHQGLSSPVTKSFNRGEC
notes: Anti-human IL-31 receptor antibody
Kd [3]: 3.3 nM | koff [3]: 0.0012 s⁻¹ | kon [3]: 370000 M⁻¹ s⁻¹

B5: RDC-11 (antibody, V domains shown)
VH: QVQLQESGPGLVRPSQTLSLTCTVSGYSITSDHAWSWVRQPPGRGLEWIGYISYSGITTYNPSLKSRVTMLRDTSKNQFSLRLSSVTAADTAVYYCARSLARTTAMDYWGQGSLVTVSS
VL: DIQMTQSPSSLSASVGDRVTITCRASQDISSYLNWYQQKPGKAPKLLIYYTSRLHSGVPSRFSGSGSGTDFTFTISSLQPEDIATYYCGQGNRLPYTFGQGTKVEIK
notes: also called H(WT)/RDC-11L
Kd [4]: 0.065 nM | koff [4]: 7e-05 s⁻¹ | kon [4]: 1.1e+06 M⁻¹ s⁻¹

Results, then the binder that gave them:

binding result [1]: binds | binding result [2]: binds
B1: WT-IgG2 (antibody)
heavy: QVQLQESGPGLVRPSQTLSLTCTVSGYSITSDHAWSWVRQPPGRGLEWIGYISYSGITTYNPSLKSRVTMLRDTSKNQFSLRLSSVTAADTAVYYCARSLARTTAMDYWGQGSLVTVSSASTKGPSVFPLAPCSRSTSESTAALGCLVKDYFPEPVTVSWNSGALTSGVHTFPAVLQSSGLYSLSSVVTVPSSNFGTQTYTCNVDHKPSNTKVDKTVERKCCVECPPCPAPPVAGPSVFLFPPKPKDTLMISRTPEVTCVVVDVSHEDPEVQFNWYVDGVEVHNAKTKPREEQFNSTFRVVSVLTVVHQDWLNGKEYKCKVSNKGLPAPIEKTISKTKGQPREPQVYTLPPSREEMTKNQVSLTCLVKGFYPSDIAVEWESNGQPENNYKTTPPMLDSDGSFFLYSKLTVDKSRWQQGNVFSCSVMHEALHNHYTQKSLSLSPGK
light: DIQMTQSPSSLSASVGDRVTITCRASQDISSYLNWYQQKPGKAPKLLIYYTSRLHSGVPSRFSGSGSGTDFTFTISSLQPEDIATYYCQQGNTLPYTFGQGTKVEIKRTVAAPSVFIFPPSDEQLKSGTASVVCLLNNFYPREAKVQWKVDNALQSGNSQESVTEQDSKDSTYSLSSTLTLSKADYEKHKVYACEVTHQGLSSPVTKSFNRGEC

Kd [3]: 3.6 nM | koff [3]: 0.0016 s⁻¹ | kon [3]: 440000 M⁻¹ s⁻¹
B3: 31R_H3L2 (antibody, V domains shown)
VH: B2 VH with Q62D
VL: B2 VL

Kd [5]: 0.039 nM | koff [5]: 4.8e-05 s⁻¹ | kon [5]: 1.2e+06 M⁻¹ s⁻¹
B6: H96/PF1L-IgG1 (antibody, V domains shown)
VH: QVQLQESGPGLVKPSETLSLTCAVSGYSISDDHAWSWVRQPPGEGLEWIGYISYSGITNYNPSLKGRVTISRDNSKNTLYLQMNSLRAEDTAVYYCARVLARITAMDYWGEGTLVTVSS
VL: B5 VL with R18S, R24Q, K45E, T51G, R53E, Q79E, P80A, I83A, K107E
